Square brackets hold non-standard residues; d marks the D form. Primed or numbered codes have the meaning given here. Ends that are not written are not given here. * marks the point of attachment. azaTic = 3,4-dihydropyridazine-2(H)-formic acid; Pro(5R-Ph) = O=C(O)[C@@H]1CC[C@H](c2ccccc2)N1; Pro(4Ph)″ = 4-phenylproline (Pro(4-phenyl)); Bip = N[C@@H](Cc1ccc(-c2ccccc2)cc1)C(=O)O; PEG8 = NCCOCCOCCOCCOCCOCCOCCOCCOCCC(=O)O; Gly(Nα-CH2CH2CONH2) = NC(=O)CCNCC(=O)O; 1Nal = N[C@@H](Cc1cccc2ccccc12)C(=O)O; 2Nal = N[C@@H](Cc1ccc2ccccc2c1)C(=O)O; dNMeY = CN[C@H](Cc1ccc(O)cc1)C(=O)O; Hydrocinnamoyl = O=C(CCc1ccccc1)*; Palmitoyl = CCCCCCCCCCCCCCCC(=O)*; NMeQ = CN[C@@H](CCC(N)=O)C(=O)O; Tic = O=C(O)[C@@H]1Cc2ccccc2CN1; NMeL = CN[C@@H](CC(C)C)C(=O)O; NMeV = CN[C@H](C(=O)O)C(C)C; NMeS = CN[C@@H](CO)C(=O)O; dNMeS = CN[C@H](CO)C(=O)O; Thz = O=C(O)[C@@H]1CSCN1; dNMeA = CN[C@H](C)C(=O)O; dTi1c = not defined here; Nleu = CC(C)CNCC(=O)O; βAla = NCCC(=O)O
T1: human Chemokine like receptor 1 (human, UniProt Q99788 1-373)
T1 sequence (looked up): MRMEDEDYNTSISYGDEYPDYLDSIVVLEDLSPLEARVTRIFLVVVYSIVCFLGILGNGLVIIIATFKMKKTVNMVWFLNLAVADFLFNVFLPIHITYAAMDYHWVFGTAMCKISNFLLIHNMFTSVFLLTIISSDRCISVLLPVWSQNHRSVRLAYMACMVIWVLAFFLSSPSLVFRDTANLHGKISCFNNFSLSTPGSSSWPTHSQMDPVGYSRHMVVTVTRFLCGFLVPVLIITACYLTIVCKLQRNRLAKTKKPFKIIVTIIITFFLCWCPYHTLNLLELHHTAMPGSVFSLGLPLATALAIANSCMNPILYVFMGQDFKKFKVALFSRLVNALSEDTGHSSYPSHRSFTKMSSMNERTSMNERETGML


Target: T1, human Chemokine like receptor 1
Test: cell-based or functional assay

| Binder | EC50 (µM), activation of Tango CMKLR1-bla U2OS cells [µM] |
| --- | --- |
| [dY]FLP[dS][NMeQ]F[dA][Tic]S-OH [YW-107] | > 50 |
| [dY]FLP[dS][Gly(Nα-CH2CH2CONH2)]F[dA][Tic]S-OH [YW-108] | > 50 |
| [dY]FLP[dS]QF[dA][Bip]S-OH [YW-95] | 30 |
| [dY]FLP[dS]QF[dA][Ala(dip)]S-OH [YW-94] | 8.7 |
| [dY]F[NMeV]P[dS]QF[dA][Tic]S-OH [YW-99] | 12 |
| [dY]FLP[dNMeS]QF[dA][Tic]S-OH [YW-106] | 24 |
| [dY]FLP[dS]QF[dA][Pro(4Ph)″]S-OH [YW-92] | 1 |
| [dY]FLP[dS]QF[dA][S‑Pip]S-OH [YW-90] | > 50 |
| [dY]FLP[dS]QF[dA][Pro(5R-Ph)]S-OH (N-terminus assumed; SMILES CC(C)C[C@H](NC(=O)[C@H](Cc1ccccc1)NC(=O)[C@H](N)Cc1ccc(O)cc1)C(=O)N1CCC[C@H]1C(=O)N[C@H](CO)C(=O)N[C@@H](CCC(N)=O)C(=O)N[C@@H](Cc1ccccc1)C(=O)N[C@H](C)C(=O)N1[C@@H](c2ccccc2)CC[C@H]1C(=O)N[C@@H](CO)C(=O)O) [YW-91] | 0.46 |
| [dY]F[NMeL]P[dS]QF[dA][Tic]S-OH (N-terminus assumed; SMILES CC(C)C[C@@H](C(=O)N1CCC[C@H]1C(=O)N[C@H](CO)C(=O)N[C@@H](CCC(N)=O)C(=O)N[C@@H](Cc1ccccc1)C(=O)N[C@H](C)C(=O)N1Cc2ccccc2C[C@H]1C(=O)N[C@@H](CO)C(=O)O)N(C)C(=O)[C@H](Cc1ccccc1)NC(=O)[C@H](N)Cc1ccc(O)cc1) [YW-98] | 0.003 |
| [dY]F[Nleu]P[dS]QF[dA][Tic]S-OH [YW-102] | 0.31 |

Next, values leading:

| EC50 (µM), activation of Tango CMKLR1-bla U2OS cells [µM] | Binder |
| --- | --- |
| 0.0026 | [dNMeY]F[NMeL]P[dS]Q[1Nal][dA][Tic][NMeS]-OH (N-terminus assumed; SMILES CN[C@H](Cc1ccc(O)cc1)C(=O)N[C@@H](Cc1ccccc1)C(=O)N(C)[C@@H](CC(C)C)C(=O)N1CCC[C@H]1C(=O)N[C@H](CO)C(=O)N[C@@H](CCC(N)=O)C(=O)N[C@@H](Cc1cccc2ccccc12)C(=O)N[C@H](C)C(=O)N1Cc2ccccc2C[C@H]1C(=O)N(C)[C@@H](CO)C(=O)O) [YW-162] |
| 0.0006 | [dNMeY]F[NMeL][Thz][dS]Q[2Nal][dA][Tic][NMeS]-OH (N-terminus assumed; SMILES CN[C@H](Cc1ccc(O)cc1)C(=O)N[C@@H](Cc1ccccc1)C(=O)N(C)[C@@H](CC(C)C)C(=O)N1CSC[C@H]1C(=O)N[C@H](CO)C(=O)N[C@@H](CCC(N)=O)C(=O)N[C@@H](Cc1ccc2ccccc2c1)C(=O)N[C@H](C)C(=O)N1Cc2ccccc2C[C@H]1C(=O)N(C)[C@@H](CO)C(=O)O) [YW-125] |
| 0.0009 | [dNMeY]F[NMeL][Thz][dS]Q[1Nal][dA][Tic][NMeS]-OH (N-terminus assumed; SMILES CN[C@H](Cc1ccc(O)cc1)C(=O)N[C@@H](Cc1ccccc1)C(=O)N(C)[C@@H](CC(C)C)C(=O)N1CSC[C@H]1C(=O)N[C@H](CO)C(=O)N[C@@H](CCC(N)=O)C(=O)N[C@@H](Cc1cccc2ccccc12)C(=O)N[C@H](C)C(=O)N1Cc2ccccc2C[C@H]1C(=O)N(C)[C@@H](CO)C(=O)O) [YW-142] |
| 0.0029 | {3,5‑dihydroxyphenylacetyl}-[dY]FLP[dS]QF[dA][Tic]S [YW-131] |
| 0.0005 | [dNMeY]F[NMeL][Thz][dS]Q[2Nal][dA][Tic]S-OH (N-terminus assumed; SMILES CN[C@H](Cc1ccc(O)cc1)C(=O)N[C@@H](Cc1ccccc1)C(=O)N(C)[C@@H](CC(C)C)C(=O)N1CSC[C@H]1C(=O)N[C@H](CO)C(=O)N[C@@H](CCC(N)=O)C(=O)N[C@@H](Cc1ccc2ccccc2c1)C(=O)N[C@H](C)C(=O)N1Cc2ccccc2C[C@H]1C(=O)N[C@@H](CO)C(=O)O) [YW-148] |
| 0.0014 | [dNMeY]F[NMeL]P[dS]Q[2Nal][dA][Tic][NMeS]-OH (N-terminus assumed; SMILES CN[C@H](Cc1ccc(O)cc1)C(=O)N[C@@H](Cc1ccccc1)C(=O)N(C)[C@@H](CC(C)C)C(=O)N1CCC[C@H]1C(=O)N[C@H](CO)C(=O)N[C@@H](CCC(N)=O)C(=O)N[C@@H](Cc1ccc2ccccc2c1)C(=O)N[C@H](C)C(=O)N1Cc2ccccc2C[C@H]1C(=O)N(C)[C@@H](CO)C(=O)O) [YW-146] |
| > 50 | [dY]FLP[dS]Q[dS][dA][azaTic]S-OH [YW-147] |
| 0.285 | [dY]FLP[dS]QF[dA][Tic]T-OH (N-terminus assumed; SMILES CC(C)C[C@H](NC(=O)[C@H](Cc1ccccc1)NC(=O)[C@H](N)Cc1ccc(O)cc1)C(=O)N1CCC[C@H]1C(=O)N[C@H](CO)C(=O)N[C@@H](CCC(N)=O)C(=O)N[C@@H](Cc1ccccc1)C(=O)N[C@H](C)C(=O)N1Cc2ccccc2C[C@H]1C(=O)N[C@H](C(=O)O)[C@@H](C)O) [YW-160] |
| 0.0055 | [dY]FLP[dS]QF[dA][Tic]S-OH (not fully specified (N-terminus); printed as 3,5-dihydroxyphenylacetyl-(D-Tyr)-Phe-Leu-Pro-(D-Ser)-Gln-Phe-(D-Ala)-Tic-Ser-OH) [YW-132] |
| 0.0007 | {Palmitoyl-PEG8}-GG[dY]F[NMeL]P[dS]QF[dA][Tic]S-OH (SMILES CCCCCCCCCCCCCCCC(=O)NCCOCCOCCOCCOCCOCCOCCOCCOCCC(=O)NCC(=O)NCC(=O)N[C@H](Cc1ccc(O)cc1)C(=O)N[C@@H](Cc1ccccc1)C(=O)N(C)[C@@H](CC(C)C)C(=O)N1CCC[C@H]1C(=O)N[C@H](CO)C(=O)N[C@@H](CCC(N)=O)C(=O)N[C@@H](Cc1ccccc1)C(=O)N[C@H](C)C(=O)N1Cc2ccccc2C[C@H]1C(=O)N[C@@H](CO)C(=O)O) [YW-133] |
| 11 | [dY]FLP[dS]QF[dNMeA][Tic]S-OH [YW-109] |
| 0.0007 | {Palmitoyl-PEG8}-[βAla][βAla][dY]F[NMeL]P[dS]QF[dA][Tic]S-OH (SMILES CCCCCCCCCCCCCCCC(=O)NCCOCCOCCOCCOCCOCCOCCOCCOCCC(=O)NCCC(=O)NCCC(=O)N[C@H](Cc1ccc(O)cc1)C(=O)N[C@@H](Cc1ccccc1)C(=O)N(C)[C@@H](CC(C)C)C(=O)N1CCC[C@H]1C(=O)N[C@H](CO)C(=O)N[C@@H](CCC(N)=O)C(=O)N[C@@H](Cc1ccccc1)C(=O)N[C@H](C)C(=O)N1Cc2ccccc2C[C@H]1C(=O)N[C@@H](CO)C(=O)O) [YW-134] |
| 0.003 | Hydrocinnamoyl-[dY]F[NMeL]P[dS]QF[dA][Tic]S-NH2 (SMILES CC(C)C[C@@H](C(=O)N1CCC[C@H]1C(=O)N[C@H](CO)C(=O)N[C@@H](CCC(N)=O)C(=O)N[C@@H](Cc1ccccc1)C(=O)N[C@H](C)C(=O)N1Cc2ccccc2C[C@H]1C(=O)N[C@@H](CO)C(N)=O)N(C)C(=O)[C@H](Cc1ccccc1)NC(=O)[C@@H](Cc1ccc(O)cc1)NC(=O)CCc1ccccc1) [YW-161] |
| 0.0022 | [dNMeY]F[NMeL]P[dS]QF[dA][Tic]S-OH (N-terminus assumed; SMILES CN[C@H](Cc1ccc(O)cc1)C(=O)N[C@@H](Cc1ccccc1)C(=O)N(C)[C@@H](CC(C)C)C(=O)N1CCC[C@H]1C(=O)N[C@H](CO)C(=O)N[C@@H](CCC(N)=O)C(=O)N[C@@H](Cc1ccccc1)C(=O)N[C@H](C)C(=O)N1Cc2ccccc2C[C@H]1C(=O)N[C@@H](CO)C(=O)O) [YW-163] |
| 0.0085 | [dY]F[NMeL]P[dS]QF[dA][dTi1c]S-OH (reading uncertain; also: printed as (D-Tyr)-Phe-(NMe-Leu)-Pro-(D-Ser)-Gln-Phe-(D-Ala)-(D-Ti1c)-Ser) [YW-153] |

Source: US20210403506A1 (XDCEXPLORER SHANGHAI, published 2021)
